Measured values reported in publication PMC9089897 (PLoS Pathogens, 2022).

Target: biotinylated avi-tagged SARS-CoV-2 (Wuhan) receptor binding domain (RBD) (SARS-CoV-2 (Wuhan strain), UniProt P0DTC2, biotin (avi-tagged RBD labeled with biotin, BirA500))
Experiment: BLI
Conditions: both partners purified

B1: REGN10933 (antibody, V domains shown)
VH: QVQLVESGGGLVKPGGSLRLSCAASGFTFSDYYMSWIRQAPGKGLEWVSYITYSGSTIYYADSVKGRFTISRDNAKSSLYLQMNSLRAEDTAVYYCARDRGTTMVPFDYWGQGTLVTVSS
VL: DIQMTQSPSSLSASVGDRVTITCQASQDITNYLNWYQQKPGKAPKLLIYAASNLETGVPSRFSGSGSGTDFTFTISGLQPEDIATYYCQQYDNLPLTFGGGTKVEIK
notes: also called Casirivimab
Does B1 bind?
Result: binds

B2: REGN10987 (antibody, V domains shown)
VH: QVQLVESGGGVVQPGRSLRLSCAASGFTFSNYAMYWVRQAPGKGLEWVAVISYDGSNKYYADSVKGRFTISRDNSKNTLYLQMNSLRTEDTAVYYCASGSDYGDYLLVYWGQGTLVTVSS
VL: QSALTQPASVSGSPGQSITISCTGTSSDVGGYNYVSWYQQHPGKAPKLMIYDVSKRPSGVSNRFSGSKSGNTASLTISGLQSEDEADYYCNSLTSISTWVFGGGTKLTVL
notes: also called Imdevimab
Does B2 bind?
Result: binds
